Changes are numbered by the printed parent chain.
What was measured:
Experiment in all cases: FACS, MEF-DKO cells, 3 µg/ml
hiR2-FL-D515E-T7 = target: T1, hiR2-FL-D515E-T7 (human, UniProt Q6PJF5 1-856)
T1 sequence: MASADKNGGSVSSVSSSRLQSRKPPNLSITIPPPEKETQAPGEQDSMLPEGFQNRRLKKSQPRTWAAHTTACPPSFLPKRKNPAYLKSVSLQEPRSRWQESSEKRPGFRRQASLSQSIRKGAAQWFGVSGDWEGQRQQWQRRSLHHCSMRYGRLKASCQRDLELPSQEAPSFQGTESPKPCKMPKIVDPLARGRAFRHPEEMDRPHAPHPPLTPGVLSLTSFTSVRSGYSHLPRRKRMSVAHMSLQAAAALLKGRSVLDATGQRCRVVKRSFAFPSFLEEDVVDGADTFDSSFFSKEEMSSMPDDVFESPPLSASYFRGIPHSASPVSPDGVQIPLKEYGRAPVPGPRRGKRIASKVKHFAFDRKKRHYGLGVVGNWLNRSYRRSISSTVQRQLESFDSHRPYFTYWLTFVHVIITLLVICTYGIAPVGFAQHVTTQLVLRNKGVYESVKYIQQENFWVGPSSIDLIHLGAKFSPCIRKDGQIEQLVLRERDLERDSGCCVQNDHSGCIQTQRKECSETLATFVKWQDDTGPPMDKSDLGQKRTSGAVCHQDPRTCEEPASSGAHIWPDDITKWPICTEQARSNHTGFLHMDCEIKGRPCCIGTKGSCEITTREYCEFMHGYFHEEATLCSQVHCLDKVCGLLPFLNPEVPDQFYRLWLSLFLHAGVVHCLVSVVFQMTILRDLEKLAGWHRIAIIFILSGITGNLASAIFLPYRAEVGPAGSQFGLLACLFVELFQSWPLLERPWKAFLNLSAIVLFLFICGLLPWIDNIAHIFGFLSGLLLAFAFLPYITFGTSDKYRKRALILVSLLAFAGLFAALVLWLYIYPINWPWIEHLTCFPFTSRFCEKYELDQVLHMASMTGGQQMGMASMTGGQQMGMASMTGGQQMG

hiR2-FL-D538L-T7 = target: T2, hiR2-FL-D538L-T7 (human, UniProt Q6PJF5 1-856)
T2 sequence: T1 sequence with E515D, D538L

hiR2-FL-S545F-T7 = target: T3, hiR2-FL-S545F-T7 (human, UniProt Q6PJF5 1-856)
T3 sequence: T1 sequence with E515D, S545F

Measured: loss of binding vs wild type

B1: antibody 48 (antibody, V domains shown)
VH: QVQLQQSGTELVRPGTSVKVSCKASGYAFTNYLIEWVKQRPGQGLEWIGVINPGSGFTKYNEKFKGKATLTADKSSSTVYMHLSSLTSEDSAVYFCARGLYRAMDYWGQGTSVTVSS
VL: DIQMTQSPASQSASLGESVTITCLASQTIATWLAWYQQKPGKSPQLLIYGATTLADGVPSRFSGGGSGTKFSFKISSLQAEDFVSYYCQQLYSTPYTFGGGTKLEIK
notes: mouse IgG, kappa light chain; also called clone #48; purified antibody 48
≥ 30%: all assays above

— patent US20240287172A1 (SCIRHOM, published 2024)
